Source: paper PMC8395317, “The Simple Method of Preparation of Highly Carboxylated Bacterial Cellulose with Ni- and Mg-Ferrite-Based Versatile Magnetic Carrier for Enzyme Immobilization” (International Journal of Molecular Sciences, 2021)

Substrate: CCCC(=O)Oc1ccc([N+](=O)[O-])cc1
Test: purified protein
Format: biochemical, Moesziomyces antarcticus
Conditions: free enzyme, 0.1 to 1.2 mmol/L pNPB, 50 mmol/L phosphate pH 7.0, 0.004% Triton X-100, 30 °C

B1: lipase B from Candida antarctica (Lipozyme CALB-L) (Moesziomyces antarcticus) (protein)
chain: LPSGSDPAFSQPKSVLDAGLTCQGASPSSVSKPILLVPGTGTTGPQSFDSNWIPLSTQLGYTPCWISPPPFMLNDTQVNTEYMVNAITALYAGSGNNKLPVLTWSQGGLVAQWGLTFFPSIRSKVDRLMAFAPDYKGTVLAGPLDALAVSAPSVWQQTTGSALTTALRNAGGLTQIVPTTNLYSATDEIVQPQVSNSPLDSSYLFNGKNVQAQAVCGPLFVIDHAGSLTSQFSYVVGRSALRSTTGQARSADYGITDCNPLPANDLTPEQKVAAAALLAPAAAAIVAGPKQNCEPDLMPYARPFAVGKRTCSGIVTP
notes: commercial recombinant enzyme (Lipozyme CALB-L, Sigma-Aldrich), used without further purification; free form
Km: 0.16 ± 0.01 mmol/L
